{"source": "patent US20060257938A1", "about": "“Method of screening for drugs that block ligand binding to a lipid binding protein” (priority 2005, published 2006)", "molecules": {"B1": {"name": "L2P22E6: FABP probe, substitutions M18V G31A F55I A73W vs SEQ ID NO: 2 (protein, listed as Rattus norvegicus)", "chain": "AFDGTWKVDRNENYEKFVEKMGINVVKRKLAAHDNLKLTITQEGNKFTVKESSNIRNIDVVFELGVDFAYSLWDGTELTGTWTMEGNKLVGKFKRVDNGKELIAVREISGNELIQTYTYEGVEAKRIFKKE", "modifications": "PEPTIDE (1)...(131) wild-type rat intestinal fatty acid binding protein"}, "B2": {"name": "L2P18H12: FABP probe, substitutions M18I G31V A73G vs SEQ ID NO: 2 (protein, listed as Rattus norvegicus)", "chain": "B1 chain with V18I, A31V, I55F, W73G", "modifications": "PEPTIDE (1)...(131) wild-type rat intestinal fatty acid binding protein"}, "B3": {"name": "L2P21C1: FABP probe, substitutions M18I G31Y A73V vs SEQ ID NO: 2 (protein, listed as Rattus norvegicus)", "chain": "B1 chain with V18I, A31Y, I55F, W73V", "modifications": "PEPTIDE (1)...(131) wild-type rat intestinal fatty acid binding protein"}, "B4": {"name": "L2P8A5: FABP probe, substitutions M18V G31A F55W A73W vs SEQ ID NO: 2 (protein, listed as Rattus norvegicus)", "chain": "B1 chain with I55W", "modifications": "PEPTIDE (1)...(131) wild-type rat intestinal fatty acid binding protein"}, "B5": {"name": "L2P8A6: FABP probe, substitutions M18I G31V F55V A73V vs SEQ ID NO: 2 (protein, listed as Rattus norvegicus)", "chain": "B1 chain with V18I, A31V, I55V, W73V", "modifications": "PEPTIDE (1)...(131) wild-type rat intestinal fatty acid binding protein"}, "B6": {"name": "L2P23A4: FABP probe, substitutions M18V G31I F55L A73V vs SEQ ID NO: 2 (protein, listed as Rattus norvegicus)", "chain": "B1 chain with A31I, I55L, W73V", "modifications": "PEPTIDE (1)...(131) wild-type rat intestinal fatty acid binding protein"}, "B7": {"name": "L2P12C5: FABP probe, substitutions M18I G31I F55M A73I vs SEQ ID NO: 2 (protein, listed as Rattus norvegicus)", "chain": "B1 chain with V18I, A31I, I55M, W73I", "modifications": "PEPTIDE (1)...(131) wild-type rat intestinal fatty acid binding protein"}}, "note": "Residue numbers refer to the chain shown, from its start. Names and notes keep the numbering of the source."}
{"test": "Probe fluorescence ratio response to arachidonic acid relative to ADIFAB2", "type": "binding", "details": "Table 5; Arachidonic acid", "summary_of_the_method": "(§1)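 Fluorescently labeled rat intestinal FABP variants were read at two emission wavelengths, near the unbound maximum (about 420 to 480 nm) and the FFA-bound maximum (about 495 to 580 nm). R = Fλ1/Fλ2 after subtracting probe-free intensity; ΔR = R+agent − R0, normalized to ADIFAB2 (rI-FABP-L72A).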"}
{"molecule": "B1", "ΔR/DRAΔ2 AA": 1.0}
{"molecule": "B2", "ΔR/DRAΔ2 AA": 1.3}
{"molecule": "B3", "ΔR/DRAΔ2 AA": 2.8}
{"molecule": "B4", "ΔR/DRAΔ2 AA": 1.1}
{"molecule": "B5", "ΔR/DRAΔ2 AA": 0.6}
{"molecule": "B6", "ΔR/DRAΔ2 AA": 2.8}
{"molecule": "B7", "ΔR/DRAΔ2 AA": 1.3}
{"test": "Probe fluorescence ratio response to linolenic acid relative to ADIFAB2", "type": "binding", "details": "Table 5", "summary_of_the_method": "as §1"}
{"molecule": "B1", "ΔR/DRAΔ2 LNA": 1.6}
{"molecule": "B2", "ΔR/DRAΔ2 LNA": 1.9}
{"molecule": "B3", "ΔR/DRAΔ2 LNA": 3.1}
{"molecule": "B4", "ΔR/DRAΔ2 LNA": 1.9}
{"molecule": "B5", "ΔR/DRAΔ2 LNA": 1.2}
{"molecule": "B6", "ΔR/DRAΔ2 LNA": 2.6}
{"molecule": "B7", "ΔR/DRAΔ2 LNA": 1.7}
{"test": "Probe fluorescence ratio response to linoleic acid relative to ADIFAB2", "type": "binding", "details": "Table 5", "summary_of_the_method": "as §1"}
{"molecule": "B1", "ΔR/DRAΔ2 LA": 1.3}
{"molecule": "B2", "ΔR/DRAΔ2 LA": 1.7}
{"molecule": "B3", "ΔR/DRAΔ2 LA": 3.4}
{"molecule": "B4", "ΔR/DRAΔ2 LA": 1.6}
{"molecule": "B5", "ΔR/DRAΔ2 LA": 0.8}
{"molecule": "B6", "ΔR/DRAΔ2 LA": 3.1}
{"molecule": "B7", "ΔR/DRAΔ2 LA": 1.5}
{"test": "Probe fluorescence ratio response to oleic acid relative to ADIFAB2", "type": "binding", "details": "Table 5", "summary_of_the_method": "as §1"}
{"molecule": "B1", "ΔR/DRAΔ2 OA": 0.8}
{"molecule": "B2", "ΔR/DRAΔ2 OA": 1.0}
{"molecule": "B3", "ΔR/DRAΔ2 OA": 2.7}
{"molecule": "B4", "ΔR/DRAΔ2 OA": 0.9}
{"molecule": "B5", "ΔR/DRAΔ2 OA": 0.4}
{"molecule": "B6", "ΔR/DRAΔ2 OA": 2.3}
{"molecule": "B7", "ΔR/DRAΔ2 OA": 0.8}
{"test": "Probe fluorescence ratio response to palmitic acid relative to ADIFAB2", "type": "binding", "details": "Table 5", "summary_of_the_method": "as §1"}
{"molecule": "B1", "ΔR/DRAΔ2 PA": 1.3}
{"molecule": "B2", "ΔR/DRAΔ2 PA": 1.6}
{"molecule": "B3", "ΔR/DRAΔ2 PA": 2.0}
{"molecule": "B4", "ΔR/DRAΔ2 PA": 1.5}
{"molecule": "B5", "ΔR/DRAΔ2 PA": 1.0}
{"molecule": "B6", "ΔR/DRAΔ2 PA": 1.9}
{"molecule": "B7", "ΔR/DRAΔ2 PA": 1.5}
{"test": "Probe fluorescence ratio response to palmitoleic acid relative to ADIFAB2", "type": "binding", "details": "Table 5", "summary_of_the_method": "as §1"}
{"molecule": "B1", "ΔR/DRAΔ2 POA": 1.6}
{"molecule": "B2", "ΔR/DRAΔ2 POA": 2.1}
{"molecule": "B3", "ΔR/DRAΔ2 POA": 2.9}
{"molecule": "B4", "ΔR/DRAΔ2 POA": 2.0}
{"molecule": "B5", "ΔR/DRAΔ2 POA": 1.3}
{"molecule": "B6", "ΔR/DRAΔ2 POA": 2.8}
{"molecule": "B7", "ΔR/DRAΔ2 POA": 1.9}
{"test": "Probe fluorescence ratio response to stearic acid relative to ADIFAB2", "type": "binding", "details": "Table 5", "summary_of_the_method": "as §1"}
{"molecule": "B1", "ΔR/DRAΔ2 SA": 0.4}
{"molecule": "B2", "ΔR/DRAΔ2 SA": 0.5}
{"molecule": "B3", "ΔR/DRAΔ2 SA": 1.6}
{"molecule": "B4", "ΔR/DRAΔ2 SA": 0.4}
{"molecule": "B5", "ΔR/DRAΔ2 SA": 0.2}
{"molecule": "B6", "ΔR/DRAΔ2 SA": 1.2}
{"molecule": "B7", "ΔR/DRAΔ2 SA": 0.4}
